The data set deals with the molecule itself. The data set is described as follows: cryo-EM structure; monomer to monomer within the homodimer; 5 µM mKu dimer with equimolar 40-bp linear dsDNA or short hairpin DNA, 30 min at 4°C.

B1: mycobacterial Ku (mKu), Mycobacterium tuberculosis, wild type (natural protein)
chain: MRAIWTGSIAFGLVNVPVKVYSATADHDIRFHQVHAKDNGRIRYKRVCEACGEVVDYRDLARAYESGDGQMVAITDDDIASLPEERSREIEVLEFVPAADVDPMMFDRSYFLEPDSKSSKSYVLLAKTLAETDRMAIVHFTLRNKTRLAALRVKDFGKREVMMVHTLLWPDEIRDPDFPVLDQKVEIKPAELKMAGQVVDSMADDFNPDRYHDTYQEQLQELIDTKLEGGQAFTAEDQPRLLDEPEDVSDLLAKLEASVKARSKANSNVPTPP
notes: Ku protein of Mycobacterium tuberculosis, gene Rv0937c, 31 kDa; the C-terminal 46 residues are not seen in the maps; also called mKu WT; mKu-WT
In the case of B1, the binding result is on record as “binds”.

For the origin of these results see PMC12784962, “https://orcid.org/0000-0002-3633-7823 Baral Joydeep Department of Bioscience and Biotechnology, Indian Institute of Technology Kharagpur, West Midnapore 721302, West Bengal, India”.
